These are literature values, as cited in article PMC4798892.

The target of series [1] is Histone H3 (H3K9me3) (Homo sapiens) (UniProt P68431).
Series [2] deals with Histone H3 (H3K4me0) (Homo sapiens) (UniProt P68431).
Series [3] addresses Histone H3 (H3K9me3S10ph) (Homo sapiens) (UniProt P68431).

ATRX ADD (from UniProt P46100): the Kd in series [1] is 110 nM; in series [2], 3000 nM; in series [3], 190 nM.

By Kd is commonly meant the concentration at which binding is half-saturated.
